Data: the supplement of paper PMC7877785
± gives the uncertainty stated by the source.

Assay: self-splicing fitness, log relative to wild type (ln ratio); higher = more splicing; Tetrahymena group I intron in knt gene, E. coli kanamycin selection, DiMSum; sequences stand for … in CUCUCU…GGAGGGAAAAGUUAUCAGGCAUGCACCUGGUAGCUAGUCUUUAAACCAAUAGAUUGCAUCGGUUUAAAAGGCAAGACCGUCAAAUUGCGGGAAAGGGGUCAACAGCCGUUCAGUACCAAGUCUCAGGGGAAACUUUGAGAUGGCCUUGCAAAGGGUAUGGUAAUAAGCUGACGGACAUGGUCCUAACCACGCAGCCAAGUCCUAAGUCAACAGAUCUUCUGUUGAUAUGGAUGCAGUUCACAGACUAAAUGUCGGUCGGGGAAGAUGUAUUCUUCUCAUAAGAUAUAGUCGGACCUCUCCUUAAUGGGAGCUAGCGGAUGAAGUGAUGCAACACUGGAGCCGCUGGGAACUAAUUUGUAUGCGAAAGUAUAUUGAUUAGUUUUGGAGUACUCGUGGUCG
In short: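 Pooled colonies went to amplicon sequencing on an Illumina HiSeq 2500 after six replicate transformations. The plates were LB agar with 100 μg/mL carbenicillin, 50 μM IPTG and 0.2% rhamnose, with or without 25 μg/mL kanamycin, incubated overnight at 37°C or 30°C. The E. coli BL21(DE3) library had all eight P1ex-region intron nucleotides randomised, the intron placed in the knt kanamycin-resistance gene on pET-22b(+). DiMSum fitness is the error-weighted combination of replicate fold changes, kanamycin against none, normalised to wild type.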

Sequence	self-splicing fitness (ln) (30 °C)	self-splicing fitness (ln) (37 °C)
GCACAGCAAUAUUACGGGCA	-1.84 ± 0.11	-0.886 ± 0.094
GCACAGCAAUAUUACGGUAU	-0.511 ± 0.038	0.102 ± 0.059
GCACAGCAAUAUUACGUCGU	-0.704 ± 0.083	0.241 ± 0.091
GCACAGCAAUAUUACGUGGA	-0.386 ± 0.064	-0.281 ± 0.065
GCACAGCAAUAUUACGUGGU	-3.37 ± 0.12	-1.82 ± 0.097
GCACAGCAAUAUUACGUGUA	-1.03 ± 0.052	-0.512 ± 0.056
GCACAGCAAUAUUACGUGUG	-3.68 ± 0.16	-2.22 ± 0.14
GCACAGCAAUAUUACGUUGA	-0.837 ± 0.071	-0.158 ± 0.072
GCAGAGCAAUAUUACGAAAU	-4.35 ± 0.29	-2.79 ± 0.26
GCAGAGCAAUAUUACGACAA	-1.8 ± 0.46	-0.677 ± 0.43
GCAGAGCAAUAUUACGAGCG	-2.33 ± 0.29	-1.41 ± 0.23
GCAGAGCAAUAUUACGAUUA	-2.28 ± 0.22	0.0469 ± 0.18
GCAGAGCAAUAUUACGAUUC	-2.56 ± 0.26	-0.2 ± 0.22
GCAGAGCAAUAUUACGCAAA	-3.37 ± 0.38	
GCAGAGCAAUAUUACGCAGA	-2.78 ± 0.42	-2.22 ± 0.34
GCAGAGCAAUAUUACGCCUU		-2.46 ± 0.33
GCAGAGCAAUAUUACGCGAG	-3.58 ± 0.35	-2.46 ± 0.28
GCAGAGCAAUAUUACGCUAC		-1.68 ± 0.32
GCAGAGCAAUAUUACGCUUG	-3.5 ± 0.21	-2.83 ± 0.31
GCAGAGCAAUAUUACGGAGU	-3.24 ± 0.2	-2.05 ± 0.27
GCAGAGCAAUAUUACGGGUU	-3.83 ± 0.3	-2.6 ± 0.3
GCAGAGCAAUAUUACGGUCG	-3.23 ± 0.12	-1.44 ± 0.1
GCAGAGCAAUAUUACGUCUA	-2.7 ± 0.23	-2.57 ± 0.24
GCAGAGCAAUAUUACGUCUG	-3.95 ± 0.33	-3.13 ± 0.47
GCAGAGCAAUAUUACGUGAC	-2.91 ± 0.12	-1.54 ± 0.11
GCAGAGCAAUAUUACGUGGA	-2.94 ± 0.4	-3.35 ± 0.39

Sequence	self-splicing fitness (ln) (30 °C)	self-splicing fitness (ln) (37 °C)
GCAGAGCAAUAUUACGUGUA	-3.61 ± 0.35	-1.17 ± 0.16
GCAGAGCAAUAUUACGUGUU	-4.35 ± 0.3	-2.42 ± 0.18
GCAGAGCAAUAUUACGUUCC		-1.51 ± 0.29
GCAGAGCAAUAUUACGUUCU	-2.78 ± 0.24	-2.18 ± 0.29
GCAGAGCAAUAUUACGUUGA	-2.53 ± 0.2	-2.15 ± 0.25
GCAUAGCAAUAUUACGAAGA	-2 ± 0.23	-0.497 ± 0.16
GCAUAGCAAUAUUACGAUGC	-2.72 ± 0.28	
GCAUAGCAAUAUUACGCAUG	-3.79 ± 0.23	-2.12 ± 0.19
GCAUAGCAAUAUUACGCCUC	-1.01 ± 0.23	-0.756 ± 0.28
GCAUAGCAAUAUUACGCGCG	-1.06 ± 0.079	-0.259 ± 0.092
GCAUAGCAAUAUUACGCUAG	-2.24 ± 0.3	-1.82 ± 0.23
GCAUAGCAAUAUUACGCUCC	-1.61 ± 0.17	-1.94 ± 0.31
GCAUAGCAAUAUUACGCUGC	-3.08 ± 0.44	-2.11 ± 0.37
GCAUAGCAAUAUUACGGAUA	-1.81 ± 0.22	-0.643 ± 0.18
GCAUAGCAAUAUUACGGAUC	-2.47 ± 0.21	-1.63 ± 0.18
GCAUAGCAAUAUUACGGCGC	-0.822 ± 0.17	-0.485 ± 0.2
GCAUAGCAAUAUUACGGGAA	-2.52 ± 0.21	-0.707 ± 0.12
GCAUAGCAAUAUUACGGGAG	-2.96 ± 0.19	-0.949 ± 0.12
GCAUAGCAAUAUUACGGGCA	-1.67 ± 0.14	-0.974 ± 0.12
GCAUAGCAAUAUUACGGGGC	-3.43 ± 0.23	-2.72 ± 0.32
GCAUAGCAAUAUUACGUACC	-0.706 ± 0.19	-0.405 ± 0.26
GCAUAGCAAUAUUACGUCAG	-2.47 ± 0.16	-1.8 ± 0.23
GCAUAGCAAUAUUACGUCCC	-1.38 ± 0.22	0.182 ± 0.21
GCAUAGCAAUAUUACGUCUU	-1.46 ± 0.1	-0.342 ± 0.11
GCAUAGCAAUAUUACGUGAA	-0.877 ± 0.067	-0.528 ± 0.07
GCCAAGCAAUAUUACGAAAG	-3.63 ± 0.21	-0.702 ± 0.2

Sequence	self-splicing fitness (ln) (30 °C)	self-splicing fitness (ln) (37 °C)
GCCAAGCAAUAUUACGAACU	-1.3 ± 0.18	-0.873 ± 0.22
GCCAAGCAAUAUUACGAAGU	-1.12 ± 0.049	-0.235 ± 0.064
GCCAAGCAAUAUUACGACCU	-1.34 ± 0.11	-1.54 ± 0.15
GCCAAGCAAUAUUACGAGAG	-2.88 ± 0.34	-1.53 ± 0.22
GCCAAGCAAUAUUACGAGCC	-3.51 ± 0.43	-1.99 ± 0.43
GCCAAGCAAUAUUACGAGUA	-3.27 ± 0.13	-1.61 ± 0.07
GCCAAGCAAUAUUACGAGUC	-1.58 ± 0.1	-1.1 ± 0.12
GCCAAGCAAUAUUACGCAAA	-1.13 ± 0.11	-0.448 ± 0.12
GCCAAGCAAUAUUACGCACA	-1.07 ± 0.14	-0.724 ± 0.15
GCCAAGCAAUAUUACGCAGA	-3.13 ± 0.16	-2.22 ± 0.15
GCCAAGCAAUAUUACGCAUC	-0.673 ± 0.082	0.0458 ± 0.095
GCCAAGCAAUAUUACGCCAU	-3.22 ± 0.37	-3.45 ± 0.46
GCCAAGCAAUAUUACGCCGU	-2.07 ± 0.087	-1.45 ± 0.12
GCCAAGCAAUAUUACGCCUG	-4.13 ± 0.39	-1.13 ± 0.19
GCCAAGCAAUAUUACGCGAG	-2.43 ± 0.11	-2 ± 0.17
GCCAAGCAAUAUUACGCGUC	-1.31 ± 0.068	-1.71 ± 0.088
GCCAAGCAAUAUUACGGAGC	-3.32 ± 0.1	-2.38 ± 0.12
GCCAAGCAAUAUUACGGGAA	-0.356 ± 0.064	-0.585 ± 0.079
GCCAAGCAAUAUUACGGUCG	-3.19 ± 0.13	-2.27 ± 0.17
GCCAAGCAAUAUUACGGUUG	-3.23 ± 0.099	-2.54 ± 0.14
GCCAAGCAAUAUUACGUAAU	-1.11 ± 0.062	-0.183 ± 0.074
GCCAAGCAAUAUUACGUAUG	-2.94 ± 0.15	-1 ± 0.13
GCCAAGCAAUAUUACGUGAC	-1.89 ± 0.13	-0.468 ± 0.12
GCCAAGCAAUAUUACGUGCG	-2 ± 0.089	-0.737 ± 0.1
GCCAAGCAAUAUUACGUUAA	-3.54 ± 0.21	-2.89 ± 0.17
